Assay results as given in patent publication US12365710B2, “HMGB1 protein derivatives for the removal of biofilms” (RESEARCH INSTITUTE AT NATIONWIDE CHILDREN'S HOSPITAL, priority 2018, dated 2025).
Read-outs that look alike come from different tables or passages of the source.

Legend:
[1] = test system: serum TNF-alpha (TNF-α); settings: cited from earlier work
[2] = test system: B. cenocepacia; format: in vivo, C57BL/6 mice; settings: 0.2 nmol administered 24 h after challenge, collected 48 h after treatment
Experimental: FIGS. 7A-7G: HMGB1 promotes clearance of S. cenocepaca from mice without inducing sepsis. C57BL/6 mice were challenged with 10^7 CFU intratracheally, and either simultaneously (prevention) or 24 h later (treatment) received 0.2 nmol of HMGB1 valiant. (FIG. 7A) Aggregates of B. cenocepacia were visible by fluorescence microscopy in lung sections probed with an α-B. cenocepacia antibody. For prevention, (FIG. 7B) bronchoalveolar lavage (BAL) collected 18 h post-inoculation (hpi) was analyzed for CFU. (FIG. 7C) Neutrophils in BAL were quantified by differential cell counting. (FIG. 7D) Lung tissue collected 72hpi was fixed, embedded, sectioned, and stained with hematoxylin & eosin (10× magnification). For treatment, 72hpi (FIG. 7E) CFUs were quantified in BAL. (FIG. 7F) Neutrophil recruitment was analyzed 24 h after intraperitoneal (i.p.) administration of HMGB1 valiants by fluorescence-activated cell sorting of peritoneal lavage stained with α-CD45, α-CD11b, and αLy-6G. (FIG. 7G) Serum TNF-α. was measured by ELISA in mice injected i.p. with 0.2 nmol HMGB1 valiants, 5 mg/kg LPS, or both. LoD: limit of detection. Bars represent SD. *P<0.05.
rHMGB1 and mHMGB1 disrupt biofilms in two distinct animal models but the inflammatory response is strongly attenuated with Cys to Ser mutations: Applicant tested both rHMGB1 and mHMGB1 for their ability to treat middle ear infection and the corresponding inflammatory response using a well-established chinchilla model of experimental OM due to NTHI49,67,68 wherein adhered mucosal biofilm formation plays a key role in pathogenesis (FIG. 8A). […] On day 6, animals were sacrificed and middle ears were imaged and blindly scored for biofilm that remained (FIG. 8A) and mucosal inflammation (FIG. 8B). […] Next, Applicant determined whether rHMGB1 or mHMGB1 could prevent or aggregate biofilm development. […] Bc formed aggregates that were readily visible in lung sections probed with Bc antibody (FIG. 7A). […] Next, Applicant assessed the ability of rHMGB1 and mHMGB1 to treat established Bc infection. […]

[3] = test system: NTHI biofilms; format: in vivo, chinchilla; settings: for reduction in CFU of NTHI: 0.2 nmol to middle ear at days 4 and 5 post-challenge, day 6, vs diluent
Experimental: FIGS. 8A-8F: rHMGB1 and mHMGB1 promote biofilm resolution in an experimental otitis media model. Diluent, 0.2 nmol rHMGB1, or 0.2 nmol mHMGB1 were delivered directly to middle ears of chinchillas at 4 and 5 days post-challenge with NTHI. Animals were sacrificed 24 h later, middle ears were imaged (FIG. 8C, representative images) and, based on the criteria described in (FIG. 8A, biofilm) and (FIG. 8B, inflammation), blindly scored for presence of biofilm (FIG. 8D) and inflammation (FIG. 8F). CFU of NTH1 present in the mucosal biomass were quantified (FIG. 8E). Means and SEM are plotted. **P<0.01, ****P<0.0001.
rHMGB1 and mHMGB1 disrupt biofilms in two distinct animal models but the inflammatory response is strongly attenuated with Cys to Ser mutations: Applicant tested both rHMGB1 and mHMGB1 for their ability to treat middle ear infection and the corresponding inflammatory response using a well-established chinchilla model of experimental OM due to NTHI49,67,68 wherein adhered mucosal biofilm formation plays a key role in pathogenesis (FIG. 8A). The middle ear of mixed sex, outbred adult chinchillas were inoculated with 1000 CFU NTHI by transbullar injection. At days 4 and 5 post-challenge, at which time there is abundant biofilm present in the middle ear space, […] of rHMGB1, mHMGB1, or diluent was delivered directly to the middle ear (2 total treatments). On day 6, animals were sacrificed and middle ears were imaged and blindly scored for biofilm that remained (FIG. 8A) and mucosal inflammation (FIG. 8B). […] In contrast, MEFs from mHMGB1-treated animals had increased anti-inflammatory cytokines [IL-4 (2-fold), IL-10 (5-fold)] […] Next, Applicant determined whether rHMGB1 or mHMGB1 could prevent or […] biofilm development. For prevention, adult C57BL/6 mice were challenged with 10^7 CFU of Bc intratracheally (i.t.), and 0.2 nmol of rHMGB1 or mHMGB1 was added simultaneously. After 18 h, mice were euthanized, and bronchoalveolar lavage (BAL) and lungs were collected. Bc formed aggregates that were readily visible in lung sections probed with Bc antibody (FIG. 7A). Tissue was homogenized and CFUs were enumerated. […] This same animal model was then used to investigate lung damage 72 h post-challenge with Bc and administration of rHMGB1 or mHMGB1. Lungs were collected and tissue was fixed, embedded in paraffin, sectioned, and stained with Haematoxylin and Eosin (H&E). […] Next, Applicant assessed the ability of rHMGB1 and mHMGB1 to treat established Bc infection. Mice were challenged as above and 0.2 nmol rHMGB1 or mHMGB1 was administered 24 h later. 48 h after treatment, mice were euthanized and BAL and lungs were collected and processed as above. […]

## rHMGB1: tagless human recombinant full length HMGB1 (1-215) expressed in E. coli
[1]; 4 doses in 40 h, LPS-primed mice
  amount required to induce sepsis, compared to our doses: 2 fold
[2]
  Bc CFU in lungs / BAL: significantly fewer Bc in their lungs
[2]; listed as HMGB1
  Bc CFU in lungs / BAL: significantly decreased
[3]
  reduction in CFU of NTHI: ~1000 fold
[3]; in vivo
  increased IL-1β in middle ear fluids: 3 fold
  increased IL-17A in middle ear fluids: 2 fold

B1: mHMGB1: engineered C45S variant of full length rHMGB1 that mimics the reduced form of HMGB1 (protein, UniProt P09429 1-215, looked up, variant C45S)
chain: MGKGDPKKPRGKMSSYAFFVQTCREEHKKKHPDASVNFSEFSKKSSERWKTMSAKEKGKFEDMAKADKARYEREMKTYIPPKGETKKKFKDPNAPKRPPSAFFLFCSEYRPKIKGEHPGLSIGDVAKKLGEMWNNTAADDKQPYEKKAAKLKEKYEKDIAAYRAKGKPDAAKKGVVKAEKSKKKKEEEEDEEDEEDEEEEEDEEDEDEEEDDDDE
modifications: full-length
notes: engineered C45S variant of full length rHMGB1 that mimics the reduced form of HMGB1
[2]
  Bc CFU in lungs / BAL: significantly fewer Bc in their lungs
[3]
  reduction in CFU of NTHI: ~1000 fold

B2: B-linker Box: HMGB1 B Box with N- and C-terminal linker (80-179; 80 to 176 in b258), 97 amino acid (protein, UniProt P09429 80-179, looked up, fragment)
chain: PPKGETKKKFKDPNAPKRPPSAFFLFCSEYRPKIKGEHPGLSIGDVAKKLGEMWNNTAADDKQPYEKKAAKLKEKYEKDIAAYRAKGKPDAAKKGVVKAE
[1]; B Box alone
  amount required to induce sepsis, compared to our doses: > 450 fold
